± gives the uncertainty stated by the source.
Test: self-splicing fitness, log relative to wild type (ln ratio); higher = more splicing; Tetrahymena group I intron in knt gene, E. coli kanamycin selection, DiMSum; sequences stand for … in CUCUCU…GGAGGGAAAAGUUAUCAGGCAUGCACCUGGUAGCUAGUCUUUAAACCAAUAGAUUGCAUCGGUUUAAAAGGCAAGACCGUCAAAUUGCGGGAAAGGGGUCAACAGCCGUUCAGUACCAAGUCUCAGGGGAAACUUUGAGAUGGCCUUGCAAAGGGUAUGGUAAUAAGCUGACGGACAUGGUCCUAACCACGCAGCCAAGUCCUAAGUCAACAGAUCUUCUGUUGAUAUGGAUGCAGUUCACAGACUAAAUGUCGGUCGGGGAAGAUGUAUUCUUCUCAUAAGAUAUAGUCGGACCUCUCCUUAAUGGGAGCUAGCGGAUGAAGUGAUGCAACACUGGAGCCGCUGGGAACUAAUUUGUAUGCGAAAGUAUAUUGAUUAGUUUUGGAGUACUCGUGGUCG
Outline: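 The eight P1ex-region nucleotides of an intron in the knt kanamycin-resistance gene on pET-22b(+) were all randomised and the library put into E. coli BL21(DE3). Six replicate transformations were grown overnight at 37°C or 30°C on LB agar with or without 25 μg/mL kanamycin, together with 100 μg/mL carbenicillin, 50 μM IPTG and 0.2% rhamnose. Colonies were pooled and amplicon-sequenced on an Illumina HiSeq 2500. Fitness from DiMSum is the error-weighted combination of wild-type-normalised replicate fold changes, kanamycin over none.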

Sequence | self-splicing fitness (ln) (30 °C) | self-splicing fitness (ln) (37 °C)
AGUGAGCAAUAUUACGUCAA | -0.971 ± 0.2 | -2.79 ± 0.36
AAGAAGCAAUAUUACGUUGG | -3.25 ± 0.18 | -2.71 ± 0.23
CCCGAGCAAUAUUACGCGCU | -3.45 ± 0.25 | -2.91 ± 0.29
UGGCAGCAAUAUUACGGUAA | -0.651 ± 0.089 | 0.0797 ± 0.093
AGGUAGCAAUAUUACGGUGU | -2.356 ± 0.015 | -1.01 ± 0.033
UUACAGCAAUAUUACGGUGU | -4.36 ± 0.46 | -2.23 ± 0.21
UAUGAGCAAUAUUACGGAGU | -4.87 ± 0.36 | -3.53 ± 0.37
AAGAAGCAAUAUUACGCCGC | -2.91 ± 0.25 | -2.63 ± 0.26
GAAGAGCAAUAUUACGCUUU | -4.12 ± 0.3 | -1.91 ± 0.28
CCACAGCAAUAUUACGGUAA | -3 ± 0.14 | -2.2 ± 0.18
AAGAAGCAAUAUUACGCGCU | -0.931 ± 0.11 | 0.0502 ± 0.12
UCCAAGCAAUAUUACGAAAU | -2.02 ± 0.2 | -1.98 ± 0.21
AGUAAGCAAUAUUACGCUCU | -1.96 ± 0.2 | -1.59 ± 0.27
AAACAGCAAUAUUACGCGGG | -2.69 ± 0.097 | -0.988 ± 0.073
UAUCAGCAAUAUUACGAAAC | – | -2.08 ± 0.32
GUCAAGCAAUAUUACGCAGA | -3.23 ± 0.24 | -2.79 ± 0.3
CGAUAGCAAUAUUACGGGUG | -0.832 ± 0.069 | -0.736 ± 0.074
GUCGAGCAAUAUUACGCUUA | -1.12 ± 0.13 | -0.065 ± 0.12
GUAUAGCAAUAUUACGGACU | -1.83 ± 0.16 | -1.27 ± 0.3
AGUGAGCAAUAUUACGAGGU | -3.63 ± 0.31 | –
ACAUAGCAAUAUUACGAUAU | -2.69 ± 0.15 | -1.97 ± 0.14
UAACAGCAAUAUUACGGAGU | -3.7 ± 0.17 | -1.41 ± 0.12
GUUUAGCAAUAUUACGGUUU | -1.32 ± 0.1 | -0.0737 ± 0.13
GUUAAGCAAUAUUACGAGAG | -3.24 ± 0.2 | -2.26 ± 0.2
UUGAAGCAAUAUUACGCUUA | -1.17 ± 0.083 | -0.467 ± 0.093
CGACAGCAAUAUUACGCCGU | -2.62 ± 0.35 | -1.55 ± 0.33

Sequence | self-splicing fitness (ln) (30 °C) | self-splicing fitness (ln) (37 °C)
CGAUAGCAAUAUUACGUUCC | -1.5 ± 0.25 | -1.51 ± 0.32
CACCAGCAAUAUUACGAAUG | -0.784 ± 0.039 | 0.236 ± 0.058
AACCAGCAAUAUUACGUUCC | -2.94 ± 0.17 | -0.871 ± 0.14
GGCAAGCAAUAUUACGAAUC | -0.875 ± 0.17 | -0.687 ± 0.26
AUGCAGCAAUAUUACGCGGU | -4.01 ± 0.21 | -1.85 ± 0.16
ACGGAGCAAUAUUACGCUAA | – | 0.642 ± 0.24
AAUCAGCAAUAUUACGGUCG | -0.214 ± 0.048 | 0.0375 ± 0.065
UGCUAGCAAUAUUACGGCGC | -3.41 ± 0.37 | 1.38 ± 0.48
CUAUAGCAAUAUUACGGCGG | -0.513 ± 0.12 | -0.641 ± 0.14
CAUUAGCAAUAUUACGCUGU | -2.72 ± 0.13 | -2.21 ± 0.18
AAUUAGCAAUAUUACGGUGC | -2.19 ± 0.26 | -3 ± 0.43
GGGCAGCAAUAUUACGCGUG | -0.165 ± 0.18 | -1.87 ± 0.22
CAUGAGCAAUAUUACGUGGG | -4.29 ± 0.27 | -3.23 ± 0.32
UGGCAGCAAUAUUACGAUAC | -3.31 ± 0.48 | -1.99 ± 0.38
AAAUAGCAAUAUUACGGCGU | -0.263 ± 0.071 | -0.0261 ± 0.095
AGGAAGCAAUAUUACGUGAU | -3.24 ± 0.13 | -2.57 ± 0.18
AUCGAGCAAUAUUACGUCCA | – | 0.309 ± 0.47
UCGAAGCAAUAUUACGAGAA | -1.94 ± 0.41 | -1.23 ± 0.3
GAUAAGCAAUAUUACGAAAA | -2.98 ± 0.17 | -2.47 ± 0.2
AGGUAGCAAUAUUACGCCAA | -1.19 ± 0.02 | -0.512 ± 0.035
CUAAAGCAAUAUUACGCCAG | -0.416 ± 0.13 | 0.13 ± 0.19
UGAGAGCAAUAUUACGACUU | -3.87 ± 0.22 | -2.31 ± 0.18
UUAAAGCAAUAUUACGUAUC | -2.17 ± 0.12 | -1.87 ± 0.16
AUACAGCAAUAUUACGUUGC | -4.31 ± 0.28 | -2.21 ± 0.35
UACAAGCAAUAUUACGUUGC | -4.71 ± 0.42 | -2.94 ± 0.27
UAAUAGCAAUAUUACGGUUG | -0.0942 ± 0.085 | -0.0839 ± 0.091

Sequence | self-splicing fitness (ln) (30 °C) | self-splicing fitness (ln) (37 °C)
GAUUAGCAAUAUUACGCUAC | -3.62 ± 0.42 | -1.48 ± 0.29
CCGGAGCAAUAUUACGCGUU | -2.5 ± 0.28 | -2.28 ± 0.24
AUGUAGCAAUAUUACGUACC | -0.724 ± 0.19 | -1.14 ± 0.18
GUAGAGCAAUAUUACGUGUC | -1.68 ± 0.094 | -0.37 ± 0.13
AGCUAGCAAUAUUACGCAAG | -4.11 ± 0.47 | -2.93 ± 0.3
AAGUAGCAAUAUUACGGCAC | -1.17 ± 0.17 | -0.552 ± 0.17
GCGGAGCAAUAUUACGCACU | -2.62 ± 0.14 | -2.79 ± 0.18
AGCUAGCAAUAUUACGUAAG | -2.91 ± 0.12 | -1.71 ± 0.14
AAAAAGCAAUAUUACGGUAC | -3.24 ± 0.11 | -1.76 ± 0.094
CUCGAGCAAUAUUACGACAA | -2.69 ± 0.19 | -2.65 ± 0.19
CCGUAGCAAUAUUACGAUAG | -1.22 ± 0.29 | -0.918 ± 0.18
GACGAGCAAUAUUACGUUGC | -4.31 ± 0.3 | -2.48 ± 0.24
UGCUAGCAAUAUUACGACAA | -1.15 ± 0.13 | -0.207 ± 0.14
ACCUAGCAAUAUUACGGGUC | -4.05 ± 0.23 | -2.57 ± 0.23
CUAAAGCAAUAUUACGCCAA | -4.58 ± 0.32 | -3.1 ± 0.37
UAGAAGCAAUAUUACGCGCA | -0.327 ± 0.15 | 0.03 ± 0.18
AAUAAGCAAUAUUACGUUUC | -4.09 ± 0.28 | -2.46 ± 0.24
CCGCAGCAAUAUUACGCGGC | -4.42 ± 0.42 | -2.55 ± 0.29
CAAAAGCAAUAUUACGUGUC | -3.51 ± 0.14 | -1.41 ± 0.12
ACUAAGCAAUAUUACGGCGG | -0.98 ± 0.07 | -0.452 ± 0.1
GAUGAGCAAUAUUACGUUGC | -4.01 ± 0.39 | -3 ± 0.35
GUACAGCAAUAUUACGUCUG | -2.04 ± 0.23 | -2.09 ± 0.18
CGUGAGCAAUAUUACGGUUG | -1.49 ± 0.07 | -0.412 ± 0.094
GCAAAGCAAUAUUACGGAAG | -1.96 ± 0.14 | -0.343 ± 0.16

Reference: the supplement of paper PMC7877785
